Measurements as given in patent publication US20110142789A1 (University of Pennsylvania, published 2011).

Molecular target: T1, endogenous human Ataxin-2 (human, UniProt Q99700 1-1313, limits assumed)
T1 construct: Endogenous protein in HEK293T lysate, detected by immunoblot with α-Ataxin-2 (BD); also called ATXN2
Experiment: co-immunoprecipitation from HEK293T lysate (α-GFP IP, α-Ataxin-2 blot)
Excerpt: CFP-Pbp1 and TDP-43-YFP show accumulations in yeast that frequently co-localize (arrows). b) Co-immunoprecipitation assays in yeast. Yeast cells co-transformed with untagged TDP-43 and either CFP-Pbp1 or CFP alone were lysed and subjected to immunoprecipitation with an α-GFP antibody (also detects CFP), then subjected to immunoblotting with a-TDP43. […] HEK293T cells were transfected with expression constructs encoding YFP, TDP-43-YFP, TDP-43ΔNLS-YFP (NLS mutant that localizes the protein to the cytoplasm), TDP-43_{ΔNLS,5F}_{_{→}}L-YFP (NLS mutant coupled with RNA-binding mutant, (5 point mutations in the RRM domains that abolish RNA-binding)), or TDP-435F_{_{→}}L-YFP (RNA-binding mutant). Protein was immunoprecipitated with a-GFP antibody (detects YFP), and then subjected to immunoblotting with a-Ataxin-2 to detect endogenous Ataxin-2. […] The interaction between Ataxin-2 and TDP-43 seen normally (left lanes) was abolished upon RNase treatment (right lanes). e) HEK293T cells transfected with YFP-tagged WT and mutant TDP-43 constructs then immunostained for endogenous Ataxin-2. Normally, Ataxin-2 is localized to the cytoplasm forming occasional cytoplasmic accumulations. TDP-43 localized to the nucleus in a diffuse pattern. […]

T1 sequence (Q99700 whole entry): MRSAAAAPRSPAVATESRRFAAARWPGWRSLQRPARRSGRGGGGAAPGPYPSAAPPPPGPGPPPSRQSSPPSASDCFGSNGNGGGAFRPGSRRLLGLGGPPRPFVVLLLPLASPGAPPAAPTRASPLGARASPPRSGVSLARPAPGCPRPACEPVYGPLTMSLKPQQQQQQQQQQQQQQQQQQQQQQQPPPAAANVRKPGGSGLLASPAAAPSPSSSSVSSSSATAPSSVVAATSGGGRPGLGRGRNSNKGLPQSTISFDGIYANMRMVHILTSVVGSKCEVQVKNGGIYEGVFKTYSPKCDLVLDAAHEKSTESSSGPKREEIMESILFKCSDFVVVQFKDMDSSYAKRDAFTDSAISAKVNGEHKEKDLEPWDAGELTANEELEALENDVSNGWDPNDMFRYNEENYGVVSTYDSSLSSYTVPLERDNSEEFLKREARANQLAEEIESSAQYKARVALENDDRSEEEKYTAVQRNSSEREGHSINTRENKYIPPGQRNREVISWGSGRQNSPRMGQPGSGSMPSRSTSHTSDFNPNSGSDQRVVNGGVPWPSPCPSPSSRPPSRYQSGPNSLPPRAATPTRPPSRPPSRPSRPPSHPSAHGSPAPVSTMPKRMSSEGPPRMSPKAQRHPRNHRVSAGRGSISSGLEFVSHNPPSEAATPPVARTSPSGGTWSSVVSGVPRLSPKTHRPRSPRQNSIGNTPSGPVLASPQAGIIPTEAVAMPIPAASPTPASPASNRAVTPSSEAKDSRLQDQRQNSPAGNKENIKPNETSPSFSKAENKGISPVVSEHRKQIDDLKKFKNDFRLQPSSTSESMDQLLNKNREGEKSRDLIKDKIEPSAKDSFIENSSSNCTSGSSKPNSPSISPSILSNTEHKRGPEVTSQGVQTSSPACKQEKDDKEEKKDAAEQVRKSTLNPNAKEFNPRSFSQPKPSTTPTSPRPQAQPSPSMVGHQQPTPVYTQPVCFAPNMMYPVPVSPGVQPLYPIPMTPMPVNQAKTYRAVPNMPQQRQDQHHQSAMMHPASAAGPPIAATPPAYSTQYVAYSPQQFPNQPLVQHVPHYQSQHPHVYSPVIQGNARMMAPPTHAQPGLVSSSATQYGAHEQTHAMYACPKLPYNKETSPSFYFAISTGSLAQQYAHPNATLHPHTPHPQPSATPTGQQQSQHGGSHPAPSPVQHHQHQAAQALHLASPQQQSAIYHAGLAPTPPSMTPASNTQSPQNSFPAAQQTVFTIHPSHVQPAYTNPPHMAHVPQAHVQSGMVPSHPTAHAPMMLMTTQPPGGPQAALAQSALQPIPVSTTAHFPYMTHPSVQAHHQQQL

B1: TDP-43ΔNLS,5F→L-YFP (other, human, UniProt Q13148 1-414, looked up)
chain: MSEYIRVTEDENDEPIEIPSEDDGTVLLSTVTAQFPGACGLRYRNPVSQCMRGVRLVEGILHAPDAGWGNLVYVVNYPKDNAAAMDETDASSAVKVKRAVQKTSDLIVLGLPWKTTEQDLKEYFSTFGEVLMVQVKKDLKTGHSKGLGLVRFTEYETQVKVMSQRHMIDGRWCDCKLPNSKQSQDEPLRSRKVLVGRCTEDMTEDELREFFSQYGDVMDVFIPKPFRALALVTFADDQIAQSLCGEDLIIKGISVHISNAEPKHNSNRQLERSGRFGGNPGGFGNQGGFGNSRGGGAGLGNNQGSNMGGGMNFGAFSINPAMMAAAQAALQSSWGMMGMLASQQNQSGPSGNNQNQGNMQREPNQAFGSGNNSYSGSNSGAAIGWGSASNAGSGSGFNGGFGSSMDSKSSGWGM
notes: also called ΔNLS-TDP-43-(5F→L)-YFP; not shown: C-terminal YFP tag
Does B1 bind?
Result: no binding
